Biological target: T1, human CD20 on Raji cells (human, UniProt P11836 1-297)
T1 construct: whole, on cells; also called Raji (CD20+/CD3-细胞)
T1 sequence (looked up): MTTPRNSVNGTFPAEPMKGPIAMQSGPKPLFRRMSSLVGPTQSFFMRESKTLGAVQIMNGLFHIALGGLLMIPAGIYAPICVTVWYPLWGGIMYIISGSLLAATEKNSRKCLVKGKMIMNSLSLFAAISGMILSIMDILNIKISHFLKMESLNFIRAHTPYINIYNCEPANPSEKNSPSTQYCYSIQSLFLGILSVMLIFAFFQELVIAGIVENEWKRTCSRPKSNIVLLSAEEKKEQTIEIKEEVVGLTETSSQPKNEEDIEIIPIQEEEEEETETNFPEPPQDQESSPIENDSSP
Assay: FACS, simultaneous binding: Calcein-AM Raji and FarRed Jurkat cells mixed 1:1, percent double-positive cells

B1: W3278-U2T3.F18R-1.uIgG4.SP (bispecific antibody)
chain 1: QVQLQQPGAELVKPGASVKMSCKASGYTFTSYNMHWVKQTPGRGLEWIGAIYPGNGDTSYNQKFKGKATLTADKSSSTAYMQLSSLTSEDSAVYYCARSTYYGGDWYFNVWGAGTTVTVSAASTKGPSVFPLAPCSRSTSESTAALGCLVKDYFPEPVTVSWNSGALTSGVHTFPAVLQSSGLYSLSSVVTVPSSSLGTKTYTCNVDHKPSNTKVDKRVGGGGSGGGGSQVQLVQSGAEVKKPGSSVKVSCKASGFAFTDYYIHWVRQAPGQGLEWMGWISPGNVNTKYNENFKGRVTITADKSTSTAYMELSSLRSEDTAVYYCARDGYSLYYFDYWGQGTLVTVLEDLKNVFPPEVAVFEPSEAEISHTQKATLVCLATGFYPDHVELSWWVNGKEVHSGVCTDPQPLKEQPALQDSRYALSSRLRVSATFWQNPRNHFRCQVQFYGLSENDEWTQDRAKPVTQIVSAEAWGRYGPPCPPCPAPEFLGGPSVFLFPPKPKDTLMISRTPEVTCVVVDVSQEDPEVQFNWYVDGVEVHNAKTKPREEQFNSTYRVVSVLTVLHQDWLNGKEYKCKVSNKGLPSSIEKTISKAKGQPREPQVYTLPPCQEEMTKNQVSLWCLVKGFYPSDIAVEWESNGQPENNYKTTPPVLDSDGSFFLYSRLTVDKSRWQEGNVFSCSVMHEALHNHYTQKSLSLSLG
chain 2: QVQLQQPGAELVKPGASVKMSCKASGYTFTSYNMHWVKQTPGRGLEWIGAIYPGNGDTSYNQKFKGKATLTADKSSSTAYMQLSSLTSEDSAVYYCARSTYYGGDWYFNVWGAGTTVTVSAASTKGPSVFPLAPCSRSTSESTAALGCLVKDYFPEPVTVSWNSGALTSGVHTFPAVLQSSGLYSLSSVVTVPSSSLGTKTYTCNVDHKPSNTKVDKRVESKYGPPCPPCPAPEFLGGPSVFLFPPKPKDTLMISRTPEVTCVVVDVSQEDPEVQFNWYVDGVEVHNAKTKPREEQFNSTYRVVSVLTVLHQDWLNGKEYKCKVSNKGLPSSIEKTISKAKGQPREPQVCTLPPSQEEMTKNQVSLSCAVKGFYPSDIAVEWESNGQPENNYKTTPPVLDSDGSFFLVSRLTVDKSRWQEGNVFSCSVMHEALHNHYTQKSLSLSLG
chain 3: QIVLSQSPAILSASPGEKVTMTCRASSSVSYIHWFQQKPGSSPKPWIYATSNLASGVPVRFSGSGSGTSYSLTISRVEAEDAATYYCQQWTSNPPTFGGGTKLEIKRTVAAPSVFIFPPSDEQLKSGTASVVCLLNNFYPREAKVQWKVDNALQSGNSQESVTEQDSKDSTYSLSSTLTLSKADYEKHKVYACEVTHQGLSSPVTKSFNRGEC
light: DIVMTQSPDSLAVSLGERATINCKSSQSLLNSRTRKNYLAWYQQKPGQPPKLLIYWASTRQSGVPDRFSGSGSGTDFTLTISSLQAEDVAVYYCTQSHTLRTFGGGTKVEIKPDIQNPDPAVYQLRDSKSSDKSVCLFTDFDSQTQVSQSKDSDVYITDKCVLDMRSMDFKSNSAVAWSQKSDFACANAFQNSIIPEDTFFPSPESS
notes: WuXiBody format F18R-1, human IgG4 with S228P and knobs-into-holes; also called WBP3278 lead Ab; W3278 lead Ab
  binding result: binds
